Blank lines part the entries; values can stand above or below the binder they belong to. Non-standard residues stand in square brackets, D forms with d. No end group written: not given here. Phe(3,5-F2) = N[C@@H](Cc1cc(F)cc(F)c1)C(=O)O
Assays:
Conditions in all cases: both partners purified
[1] = target: T1, TEAD2 (A217–D447), YAP-binding domain, His-tagged (human, UniProt Q15562 217-447); test: AlphaScreen or HTRF; site 2/site 3-specific HTRF: His-tagged TEAD preincubated 30 min with compounds in 50 mM HEPES pH 7.2, 100 mM NaCl, 0.01% Tween-20, 0.5 mg/ml bovine gamma globulin, 1 mM dithiothreitol; biotinylated probe added for 60 min; europium anti-His and streptavidin-XL665; room temperature
T1 construct: The construct has a TEV site after the His tag; The tag is kept in the TR-FRET/HTRF assays (anti-His detection); Treated with 2.5% hydroxylamine; source: E. coli BL21 (DE3), autoinduction, purified (hydroxylamine treated, size exclusion); not shown: His6, N-terminal, kept
T1 sequence (Q15562 217-447): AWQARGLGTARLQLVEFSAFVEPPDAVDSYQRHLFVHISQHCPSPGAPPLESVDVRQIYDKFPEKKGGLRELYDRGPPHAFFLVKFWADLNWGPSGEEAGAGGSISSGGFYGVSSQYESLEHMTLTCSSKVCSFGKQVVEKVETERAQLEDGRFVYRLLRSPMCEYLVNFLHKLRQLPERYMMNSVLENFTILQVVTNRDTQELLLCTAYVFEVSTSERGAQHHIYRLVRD

[2] = target: T1, TEAD2 (A217–D447), YAP-binding domain, …; test: 1D 19F NMR of the free peptides; 20 μM S2, 20 μM S3 and 10 μM TEAD2 in PBS (100% D2O), pH 7.4, 298 K; displacement by addition of 55 μM compound 2, GNE-7883 or pepYAP
[3] = target: T2, TEAD3 (Q216–D435), YAP-binding domain, His-tagged (human, UniProt Q99594 216-435); test: AlphaScreen or HTRF; TEAD–YAP TR-FRET: His-tagged TEAD (YAP-binding domain) with europium anti-His antibody, preincubated 30 min with small molecules; biotinylated YAP peptide (50–100) with streptavidin-XL665; 60 min, room temperature; read at 665 and 615 nm
T2 construct: The construct has a TEV site after the His tag; treated with 2.5% hydroxylamine; source: E. coli BL21 (DE3), autoinduction, purified (hydroxylamine treated, size exclusion); not shown: His6, N-terminal, kept
T2 sequence (Q99594 216-435): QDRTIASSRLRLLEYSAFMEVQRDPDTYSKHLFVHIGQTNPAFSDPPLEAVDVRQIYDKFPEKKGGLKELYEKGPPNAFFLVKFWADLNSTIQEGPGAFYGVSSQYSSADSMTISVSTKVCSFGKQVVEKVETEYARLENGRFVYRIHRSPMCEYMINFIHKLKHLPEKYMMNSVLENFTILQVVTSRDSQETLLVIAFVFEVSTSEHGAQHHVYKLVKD

B1: biotinylated mouse vestigial-like protein 1 peptide, amino acids 20–51 (site 2 probe) (peptide, UniProt Q99NC0 20-51, looked up)
peptide: KTEWNAGSVIFTYFEGDINSMVDEHFSRALRN
modifications: also: biotin, position not given here
notes: mouse vestigial-like protein 1 (Vgll1), amino acids 20–51; also called mVgll1; Vgll1 peptide
binding result [1]: binds

B2: S3, 19F-labeled YAP peptide (residues 80–100) (peptide)
peptide: Ac-VPQTVPMRLRKLPDS[Phe(3,5-F2)]FKPPE
modifications: not fully specified
notes: YAP residues 80–100; Phe95 is 3,5-difluoro-phenylalanine; also called peptide S3; source: synthetic peptide, bought: ABclonal
binding result [2]: binds

Continued, values first:

binding result [2]: binds
B3: S2, 19F-labeled YAP peptide (residues 59–81) (peptide)
peptide: Ac-GDSETDLEAL[Phe(3,5-F2)]NAVMNPKTANVP
modifications: not fully specified
notes: YAP residues 59–81; Phe69 is 3,5-difluoro-phenylalanine; also called peptide S2; source: synthetic peptide, bought: ABclonal

binding result [2]: binds
B4: pepYAP, YAP peptide (amino acids 60–100) (peptide)
peptide: DSETDLEALFNAVMNPKTANVPQTVPMRLRKLPDSFFKPPE
notes: source: synthetic peptide, bought: ABclonal

binding result [3]: binds
B5: biotinylated YAP peptide (amino acids 50–100) (peptide, UniProt P46937 50-100, looked up)
peptide: AGHQIVHVRGDSETDLEALFNAVMNPKTANVPQTVPMRLRKLPDSFFKPPE
modifications: biotin (position not given)
notes: YAP (Yes-associated protein), amino acids 50–100; Held by streptavidin-XL665 in the assay; also called YAP 50–100
